Reference: doi:10.1101/2023.11.12.566739

B1: crRNA + target dsDNA (cis DNA), ternary complex (mixed)
RNA: AAUUUCUACUGUUGUAGAUUCCUAAGGCGUUACCCCAAU
DNA 1: CTAGCATATTTATCCTAAGGCGTTACCCCAATGGGAGGG
DNA 2: CCCTCCCATTGGGGTAACGCCTTAGGATAAATATGCTAG
B2: crRNA (cryo-EM) (structured_RNA)
RNA: B1 RNA

Experiments:
[1] = target: T1, α-synCas (synthetic ancestral Cas12a-like nuclease, ASR) (synthetic construct (ancestral …, UniProt PDB:8QWE_1 1-1261)); assay: cryo-EM
T1 chain: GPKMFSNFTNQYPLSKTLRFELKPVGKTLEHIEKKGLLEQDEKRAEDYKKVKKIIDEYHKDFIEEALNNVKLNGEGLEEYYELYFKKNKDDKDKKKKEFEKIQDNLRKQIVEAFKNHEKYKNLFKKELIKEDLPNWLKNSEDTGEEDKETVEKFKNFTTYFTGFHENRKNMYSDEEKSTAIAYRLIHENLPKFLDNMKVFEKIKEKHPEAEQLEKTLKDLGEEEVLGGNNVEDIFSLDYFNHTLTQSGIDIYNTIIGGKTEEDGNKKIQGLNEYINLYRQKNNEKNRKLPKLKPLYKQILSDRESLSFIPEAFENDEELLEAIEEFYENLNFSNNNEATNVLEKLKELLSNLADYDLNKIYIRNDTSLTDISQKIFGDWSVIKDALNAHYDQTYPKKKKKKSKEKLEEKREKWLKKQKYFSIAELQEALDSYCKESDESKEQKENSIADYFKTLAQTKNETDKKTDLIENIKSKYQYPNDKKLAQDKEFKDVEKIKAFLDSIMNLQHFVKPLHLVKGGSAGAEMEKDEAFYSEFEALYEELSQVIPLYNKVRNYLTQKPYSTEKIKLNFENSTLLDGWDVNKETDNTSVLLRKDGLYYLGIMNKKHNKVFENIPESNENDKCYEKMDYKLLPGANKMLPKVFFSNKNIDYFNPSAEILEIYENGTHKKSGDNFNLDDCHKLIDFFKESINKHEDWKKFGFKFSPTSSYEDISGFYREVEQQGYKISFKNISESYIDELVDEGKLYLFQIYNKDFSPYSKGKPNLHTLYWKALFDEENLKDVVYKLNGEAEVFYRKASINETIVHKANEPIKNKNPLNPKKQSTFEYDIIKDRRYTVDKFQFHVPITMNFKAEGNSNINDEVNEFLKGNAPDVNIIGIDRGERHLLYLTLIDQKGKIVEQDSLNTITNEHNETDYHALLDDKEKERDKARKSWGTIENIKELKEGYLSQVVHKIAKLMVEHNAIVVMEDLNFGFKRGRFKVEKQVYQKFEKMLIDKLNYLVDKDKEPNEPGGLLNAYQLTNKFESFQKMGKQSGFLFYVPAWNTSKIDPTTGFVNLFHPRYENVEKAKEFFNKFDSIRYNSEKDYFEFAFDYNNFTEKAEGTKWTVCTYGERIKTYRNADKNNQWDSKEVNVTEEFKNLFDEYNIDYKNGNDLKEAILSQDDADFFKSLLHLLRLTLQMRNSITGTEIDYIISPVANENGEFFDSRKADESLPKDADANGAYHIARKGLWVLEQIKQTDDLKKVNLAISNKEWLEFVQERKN

[2] = target: T1, α-synCas (synthetic ancestral …); assay: size exclusion chromatography

Row | Binder | binding result [1] | binding result [2]
1 | B1 | binds | –
2 | B2 | – | binds
